Results on 2 molecules are retold here after US5705608, “Human IL-2 receptor γ chain molecule” (Ajinomoto Co., Inc., dated 1998).

In test [1] the target is T1, IL-2 labelled with 125I (human, UniProt P60568, 125I label by the chloramine-T method). Kind of test: 125I-IL-2 binding to Lβγ-9 cells at 4° C., Scatchard plot. How it is done: (§1) The radioactivity of ^125I-IL-2 bound or not bound to the cells was determined. The value for the background or the binding radioactivity in the case of addition of unlabelled IL-2 was subtracted from each of the measurements to calculate the binding amounts, the binding ability and the binding affinity of IL-2 to the receptor as determined by a Scatchard plot.

For test [2], the target named is T1, IL-2 labelled with 125I. The test is described as follows: 125I-IL-2 binding to Lαβγ-4 cells at 4° C., Scatchard plot, biphasic, low affinity component. How it is done: as §1
The target of test [3] is T1, IL-2 labelled with 125I. The test is described as follows: 125I-IL-2 binding to Lαβγ-4 cells at 4° C., Scatchard plot, biphasic, high affinity component. How it is done:
as §1

B1: IL-2 receptor β and γ chains on Lβγ-9 cells (L929 cells with IL-2 receptor β and γ chain expression) (receptor)
chain 1: AVNGTSQFTCFYNSRANISCVWSQDGALQDTSCQVHAWPDRRRWNQTCELLPVSQASWACNLILGAPDSQKLTTVDIVTLRVLCREGVRWRVMAIQDFKPFENLRLMAPISLQVVHVETHRCNISWEISQASHYFERHLEFEARTLSPGHTWEEAPLLTLKQKQEWICLETLTPDTQYEFQVRVKPLQGEFTTWSPWSQPLAFRTKPAALGKDTIPWLGHLLVGLSGAFGFIILVYLLINCRNTGPWLKKVLKCNTPDPSKFFSQLSSEHGGDVQKWLSSPFPSSSFSPGGLAPEISPLEVLERDKVTQLLLQQDKVPEPASLSSNHSLTSCFTNQGYFFFHLPDALEIEACQVYFTYDPYSEEDPDEGVAGAPTGSSPQPLQPLSGEDDAYCTFPSRDDLLLFSPSLLGGPSPPSTAPGGSGAGEERMPPSLQERVPRDWDPQPLGPPTPGVPDLVDFQPPPELVLREAGEEVPDAGPREGVSFPWSRPPGQGEFRALNARLPLNTDAYLSLQELQGQDPTHLV
chain 2: LNTTILTPNGNEDTTADFFLTTMPTDSLSVSTLPLPEVQCFVFNVEYMNCTWNSSSEPQPTNLTLHYWYKNSDNDKVQKCSHYLFSEEITSGCQLQKKEIHLYQTFVVQLQDPREPRRQATQMLKLQNLVIPWAPENLTLHKLSESQLELNWNNRFLNHCLEHLVQYRTDWDHSWTEQSVDYRHKFSLPSVDGQKRYTFRVRSRFNPLCGSAQHWSEWSHPIHWGSNTSKENPFLFALEAVVISVGSMGLIISLLCVYFWLERTMPRIPTLKNLEDLVTEYHGNFSAWSGVSKGLAESLQPDYSERLCLVSEIPPKGGALGEGPGASPCNQHSPYWAPPCYTLKPET
Molecule B1 registered a Kd in test [1] of 4.6 nM.

B2: IL-2 receptor α, β and γ chains on Lαβγ-4 cells (L929 with IL-2 receptor α, β and γ chain expression) (receptor)
chain 1: ELCDDDPPEIPHATFKAMAYKEGTMLNCECKRGFRRIKSGSLYMLCTGNSSHSSWDNQCQCTSSATRNTTKQVTPQPEEQKERKTTEMQSPMQPVDQASLPGHCREPPPWENEATERIYHFVVGQMVYYQCVQGYRALHRGPAESVCKMTHGKTRWTQPQLICTGEMETSQFPGEEKPQASPEGRPESETSCLVTTTDFQIQTEMAATMETSIFTTEYQVAVAGCVFLLISVLLLSGLTWQRRQRKSRRTI
chain 2: B1 chain 1
chain 3: B1 chain 2
As to B2, the results for the equilibrium dissociation constant (Kd) in test [2] and in test [3] were 2.4 nM and 0.077 nM, respectively.

As usually defined, the Kd is a measure of binding affinity in units of concentration. Read a low Kd as tighter binding.
